Reference: patent publication US20250376517A1 (AKESO BIOPHARMA, published 2025)

How the values were obtained:
[1] = molecular target: T1, human Claudin18.2 (CLDN18.2) on the surface of CHO-K1-CLDN18.2 cells (human, UniProt P56856-2 1-261); test: cell ELISA on CHO-K1-CLDN18.2 cells; antibody 0.111 µg/mL
T1 construct: whole, on cells; Membrane protein overexpressed on CHO-K1 cells; also called hCLDN18.2; antigen on the surface of CHO-K1-CLDN18.2 cell
Method: (§1) CHO-K1-CLDN18.2 cells (Chinese hamster ovary cells CHO-K1 overexpressing CLDN18.2, CHO-K1 purchased from Cell Resource Center, Institute of Basic Medical Sciences, Chinese Academy of Medical Sciences, Cat. No.: 3111C0001CCC000004) were plated on a cell plate (Corning, 3599) at 2×10⁴ cells/well and cultured overnight at 5% CO₂ and 37° C., and then the cell plate in which the cells were incubated was washed once with PBST and blocked for 2 h at 37° C. using PBST containing 1% BSA as a blocking solution. After blocking, the plate was washed 3 times with PBST. The ELISA plate containing the test antibodies was incubated at 37° C. for 30 min and then washed 3 times with PBST. […] Then, the plate was incubated at 37° C. for 30 min. After incubation, the plate was washed 4 times with PBST, TMB (Neogen, 308177) was added for color developing in the dark for 5 min, and then a stop solution was added to terminate the chromogenic reaction. The ELISA plate was put into a microplate reader immediately, and the OD value of each well in the ELISA plate was read at 450 nm. The data were analyzed and processed by SoftMax Pro 6.2.1.

[2] = molecular target: T1, human Claudin18.2 (CLDN18.2) on the …; test: cell ELISA on CHO-K1-CLDN18.2 cells; antibody 1.000 µg/mL
Method: as §1

[3] = molecular target: T1, human Claudin18.2 (CLDN18.2) on the …; test: cell ELISA on CHO-K1-CLDN18.2 cells; antibody 0 µg/mL (background, no antibody)
Method: as §1

[4] = molecular target: T1, human Claudin18.2 (CLDN18.2) on the …; test: cell ELISA on CHO-K1-CLDN18.2 cells; antibody 0.004 µg/mL
Method: as §1

[5] = molecular target: T1, human Claudin18.2 (CLDN18.2) on the …; test: cell ELISA on CHO-K1-CLDN18.2 cells; antibody 0.333 µg/mL
Method: as §1

[6] = molecular target: T1, human Claudin18.2 (CLDN18.2) on the …; test: cell ELISA on CHO-K1-CLDN18.2 cells; antibody 0.037 µg/mL
Method: as §1

[7] = molecular target: T1, human Claudin18.2 (CLDN18.2) on the …; test: cell ELISA on CHO-K1-CLDN18.2 cells; antibody 0.012 µg/mL
Method: as §1

[8] = molecular target: T1, human Claudin18.2 (CLDN18.2) on the …; test: cell ELISA on CHO-K1-CLDN18.2 cells
Method: as §1

[9] = molecular target: T1, human Claudin18.2 (CLDN18.2) on the …; test: flow cytometry (FACS) on CHO-K1-CLDN18.2 cells
Method: CHO-K1-CLDN18.2 cells in logarithmic growth phase were collected and transferred to a 1.5 mL EP tube at 3×10⁵ cells/well, and then 1% PBSA was added. The mixture was centrifuged at 1000× g for 5 min, followed by removal of the supernatant. […] 1000 μL of 1% PBSA was added, and the mixture was centrifuged at 1000×g for 5 min, followed by removal of the supernatant and washing twice with 1% PBSA. […] The mixture was resuspended and well mixed, and incubated on ice for 40 min in the dark. 1000 μL of 1% PBSA was added, and the mixture was centrifuged at 1000×g for 5 min, followed by removal of the supernatant and washing twice with 1% PBSA. 200 μL of 1% PBSA was added to resuspend the cell pellets, and the mixture was transferred to a flow cytometry tube for FACSCalibur assay.

[10] = molecular target: T1, human Claudin18.2 (CLDN18.2) on the …; test: cell ELISA on CHO-K1-CLDN18.2 cells; antibody 3 µg/mL
Method: as §1

[11] = molecular target: T1, human Claudin18.2 (CLDN18.2) on the …; test: flow cytometry (FACS) on CHO-K1-CLDN18.2 cells; remark: listed apart in the source
[12] = molecular target: T1, human Claudin18.2 (CLDN18.2) on the …; test: cell ELISA on CHO-K1-CLDN18.2 cells; remark: listed apart in the source
Method: as §1

[13] = molecular target: T1, human Claudin18.2 (CLDN18.2) on the …; test: cell ELISA on CHO-K1-CLDN18.2 cells; remark: listed apart in the source
Method: as §1

Binder | EC50 [11] | EC50 [12] | EC50 [13] | further results
anti-CLDN18.2 antibody 8C5.1 (antibody, V domains shown, Murine monoclonal antibody purified from hybridoma LT020 supernatant on protein A; also called monoclonal antibody secreted by hybridoma cell line LT020) VH: EVQLVESGGGLVKPGGSLKLSCAASGFTFSNSAVSWVRQTPEKRLEWVATITSGVSYTYYLDSVRGRFTISRDNAKNTLYLQMSSLRSEDTAMYYCTRQFKGNALDYWGQGTSVTVSS VL: DIVMTQSPSSLTVTAGEKVTMSCKSSQSLLNSGNQKNYLTWYQQKPGQPPKLLIYWASTRESGVPDRFTGSGSGTDFTLTINNFQAEDLAVYYCQNDYFYPLTFGAGTKLELK | – | – | – | OD (450 nm) [1]: 1.42 OD; OD (450 nm) [2]: 1.79 OD; OD (450 nm) [3]: 0.086 OD; OD (450 nm) [4]: 0.344 OD; OD (450 nm) [5]: 1.63 OD; OD (450 nm) [6]: 1.07 OD; OD (450 nm) [7]: 0.697 OD; EC50 [8]: 0.153 nM; EC50 [9]: 0.214 mg/L; OD (450 nm) [10]: 1.61 OD
humanized anti-human CLDN18.2 antibody 8C5.1H2L2 (antibody, human IgG1, kappa, V domains shown) VH: EVQLVESGGGLVKPGGSLRLSCAASGFTFSNSAVSWVRQAPGKGLEWVSTITSGVSYTYYADSVKGRFTISRDNAKNSLYLQMNSLRAEDTAVYYCTRQFKGNALDYWGQGTSVTVSS VL: DIVMTQSPSSLSVSPGERVTISCKSSQSLLNSGNQKNYLTWYQQKPGQPPKLLIYWASTRESGVPDRFSGSGSGTDFTLTISSFQAEDVAVYYCQNDYFYPLTFGAGTKLELKR | 0.234 mg/L | 0.094 nM | – | –
humanized anti-human CLDN18.2 antibody 8C5.1H2L1 (antibody, human IgG1, kappa, V domains shown) VH: EVQLVESGGGLVKPGGSLRLSCAASGFTFSNSAVSWVRQAPGKGLEWVSTITSGVSYTYYADSVKGRFTISRDNAKNSLYLQMNSLRAEDTAVYYCTRQFKGNALDYWGQGTSVTVSS VL: DIVMTQSPSSLSVSPGERVTMSCKSSQSLLNSGNQKNYLTWYQQKPGQPPKLLIYWASTRESGVPDRFSGSGSGTDFTLTINSFQAEDVAVYYCQNDYFYPLTFGAGTKLELKR | 0.267 mg/L | 0.091 nM | – | –
humanized anti-human CLDN18.2 antibody 8C5.1H1L2 (antibody, human IgG1, kappa, V domains shown) VH: EVQLVESGGGLVKPGGSLRLSCAASGFTFSNSAVSWVRQAPGKRLEWVATITSGVSYTYYLDSVRGRFTISRDNAKNSLYLQMNSLRAEDTAVYYCTRQFKGNALDYWGQGTSVTVSS VL: DIVMTQSPSSLSVSPGERVTISCKSSQSLLNSGNQKNYLTWYQQKPGQPPKLLIYWASTRESGVPDRFSGSGSGTDFTLTISSFQAEDVAVYYCQNDYFYPLTFGAGTKLELKR | 0.242 mg/L | 0.108 nM | – | –
humanized anti-human CLDN18.2 antibody 8C5.1H1L1 (antibody, human IgG1, kappa, V domains shown) VH: EVQLVESGGGLVKPGGSLRLSCAASGFTFSNSAVSWVRQAPGKRLEWVATITSGVSYTYYLDSVRGRFTISRDNAKNSLYLQMNSLRAEDTAVYYCTRQFKGNALDYWGQGTSVTVSS VL: DIVMTQSPSSLSVSPGERVTMSCKSSQSLLNSGNQKNYLTWYQQKPGQPPKLLIYWASTRESGVPDRFSGSGSGTDFTLTINSFQAEDVAVYYCQNDYFYPLTFGAGTKLELKR | 0.216 mg/L | 0.054 nM | – | –

Second part, led by results:

EC50 [11] | EC50 [12] | EC50 [13] | Binder | further results
0.358 mg/L | 0.153 nM | 0.182 nM | positive control antibody IMAB362 (antibody, human IgG1, kappa, V domains shown, Human-murine chimeric antibody; produced by Akeso Biopharma Inc; also called Claudiximab; zolbetuximab) VH: QVQLQQPGAELVRPGASVKLSCKASGYTFTSYWINWVKQRPGQGLEWIGNIYPSDSYTNYNQKFKDKATLTVDKSSSTAYMQLSSPTSEDSAVYYCTRSWRGNSFDYWGQGTTLTVSS VL: DIVMTQSPSSLTVTAGEKVTMSCKSSQSLLNSGNQKNYLTWYQQKPGQPPKLLIYWASTRESGVPDRFTGSGSGTDFTLTISSVQAEDLAVYYCQNDYSYPFTFGSGTKLEIKR | EC50 [8]: 0.201 nM; EC50 [9]: 0.687 mg/L
0.213 mg/L | – | 0.103 nM | humanized anti-human CLDN18.2 antibody 8C5.1H3L2 (antibody, human IgG1, kappa, V domains shown) VH: EVQLVESGGGLVKPGGSLRLSCAASGFTFSNSAVSWVRQAPGKGLEWVSSITSGVSYTYYADSVKGRFTISRDNAKNSLYLQMNSLRAEDTAVYYCTRQFKGNALDYWGQGTSVTVSS VL: DIVMTQSPSSLSVSPGERVTISCKSSQSLLNSGNQKNYLTWYQQKPGQPPKLLIYWASTRESGVPDRFSGSGSGTDFTLTISSFQAEDVAVYYCQNDYFYPLTFGAGTKLELKR | –
0.281 mg/L | – | – | humanized anti-human CLDN18.2 antibody 8C5.1H3L3 (antibody, human IgG1, kappa, V domains shown) VH: EVQLVESGGGLVKPGGSLRLSCAASGFTFSNSAVSWVRQAPGKGLEWVSSITSGVSYTYYADSVKGRFTISRDNAKNSLYLQMNSLRAEDTAVYYCTRQFKGNALDYWGQGTSVTVSS VL: DIVMTQSPSSLSVSPGERVTISCKSSQSLLNSGNQKNYLAWYQQKPGQPPKLLIYWASTRESGVPDRFSGSGSGTDFTLTISSLQAEDVAVYYCQNDYFYPLTFGAGTKLELKR | –
0.243 mg/L | – | 0.081 nM | humanized anti-human CLDN18.2 antibody 8C5.1H2L3 (antibody, human IgG1, kappa, V domains shown) VH: EVQLVESGGGLVKPGGSLRLSCAASGFTFSNSAVSWVRQAPGKGLEWVSTITSGVSYTYYADSVKGRFTISRDNAKNSLYLQMNSLRAEDTAVYYCTRQFKGNALDYWGQGTSVTVSS VL: DIVMTQSPSSLSVSPGERVTISCKSSQSLLNSGNQKNYLAWYQQKPGQPPKLLIYWASTRESGVPDRFSGSGSGTDFTLTISSLQAEDVAVYYCQNDYFYPLTFGAGTKLELKR | –
